B1: human TRAF1 TRAF domain (residues 220-416), containing the TRAF-N coiled-coil domain and the TRAF-C domain (domain or fragment, UniProt Q13077 220-416, looked up)
chain: HQSQLDRERILSLEQRVVELQQTLAQKDQALGKLEQSLRLMEEASFDGTFLWKITNVTRRCHESACGRTVSLFSPAFYTAKYGYKLCLRLYLNGDGTGKRTHLSLFIVIMRGEYDALLPWPFRNKVTFMLLDQNNREHAIDAFRPDLSSASFQRPQSETNVASGCPLFFPLSKLQSPKHAYVKDDTMFLKCIVETST
notes: TNF-receptor associated factor 1 (TRAF1), human, TRAF domain, amino acids 220-416, cloned into pET24a; Trimer in the crystal and in solution (SEC, MALS); also called wildtype TRAF1; not shown: His-tag, C-terminal, kept
B2: TANK peptide (SVPIQCTDKT) (peptide)
peptide: SVPIQCTDKT
notes: also called I-TRAF; source: synthetic peptide (Peptron, Dae-jeon, South Korea)

Columns and labels:
[1] = target: TANK peptide PEP (Homo sapiens) (UniProt Q92844); conditions: cited from earlier work
[2] = target: the molecule itself; experiment: SEC; Superdex 200 10/30 gel filtration in 20 mM sodium citrate pH 5.0, 1 M NaCl
[3] = target: B1; experiment: ITC; NanoITC; 1 mM TANK peptide injected into ~20 uM wildtype or mutant TRAF1 in the cell; PBS; 15 °C; 25 injections; single site model; conditions: both partners purified

Sequence of TANK peptide PEP (Homo sapiens) (Q92844 178-198): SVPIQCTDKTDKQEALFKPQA

For TRAF3 (from UniProt Q13114), the Kd [1] is listed as 23.9 µM.

For B1, the “stoichiometry N” value [2] was 3.

For B2, the Kd [3] was 13.6 µM.

— PMC4858697, “Crystal structure of TRAF1 TRAF domain and its implications in the TRAF1-mediated intracellular signaling pathway” (Scientific Reports, 2016)
